According to publication PMC9710096:

What was measured:
Test in all cases: SEC
[1] = target: SARS-CoV-2 Beta Spike protein (B.1.351), tagless (SARS-CoV-2 | bacteriophage T4 (from the name T4 fibritin)) (UniProt P0DTC2)
[2] = target: SARS-CoV-2 D614G Spike protein, tagless (SARS-CoV-2 | bacteriophage T4 (from the name T4 fibritin)) (UniProt P0DTC2)
[3] = target: SARS-CoV-2 Delta Spike protein (B.1.617.2), tagless (SARS-CoV-2 | bacteriophage T4 (from the name T4 fibritin)) (UniProt P0DTC2)
[4] = target: SARS-CoV-2 Gamma Spike protein (P.1), tagless (SARS-CoV-2 | bacteriophage T4 (from the name T4 fibritin)) (UniProt P0DTC2)

SARS-CoV-2 Beta Spike protein (B.1.351), tagless (from UniProt P0DTC2 1-1208) (natural protein)
stoichiometry N [1]: 3

SARS-CoV-2 D614G Spike protein, tagless (from UniProt P0DTC2 1-1208) (natural protein)
stoichiometry N [2]: 3

SARS-CoV-2 Delta Spike protein (B.1.617.2), tagless (from UniProt P0DTC2 1-1208) (natural protein)
stoichiometry N [3]: 3

SARS-CoV-2 Gamma Spike protein (P.1), tagless (from UniProt P0DTC2 1-1208) (natural protein)
stoichiometry N [4]: 3
